The source of these data is patent publication US20260078185A1 (DYNAMICURE BIOTECHNOLOGY, published 2026).

Substitutions are numbered along the chain they refer to.

Assay [1] addresses T1, mouse VISTA recombinant protein (Sino Biological Inc., Cat. #51550-M08H), biotinylated (mouse, UniProt Q9D659 33-191, biotinylated using EZ-LINK NHS-PEG4 biotin).
T1 construct: Bought protein; also called mouse VISTA protein
T1 sequence (looked up): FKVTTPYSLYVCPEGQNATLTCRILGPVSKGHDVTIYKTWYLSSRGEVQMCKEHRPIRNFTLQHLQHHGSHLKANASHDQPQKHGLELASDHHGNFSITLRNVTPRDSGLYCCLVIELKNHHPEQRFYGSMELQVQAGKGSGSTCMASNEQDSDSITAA
Put plainly: BLI (Octet QKe), biotinylated VISTA on streptavidin sensors, antibody at 5 µg/ml. The procedure:
(§1) Method: The binding affinity of anti-VISTA antibodies was determined with bio-layer interferometry using Octet QKe (ForteBio). Human VISTA recombinant protein (Sino Biological Inc., Cat. #13482-H08H) mouse VISTA (Sino Biological Inc., Cat. #51550-M08H) were biotinylated using EZ-LINK NHS-PEG4 biotin (Thermo Fisher Scientific). Streptavidin biosensors (ForteBio) were used to load biotinylated VISTA protein (300 seconds at 5 μg/ml). The baseline measurement was stabilized for 60 seconds in 1× kinetics buffer (ForteBio) before anti-VISTA antibodies at 5 μg/ml were allowed to associate for 300 seconds with captured protein. Then the sensors were dissociated in 1× kinetics buffer for 600 seconds. Data analysis was performed on ForteBio Data Analysis HT 11.1 software.
A general note: BLI is a label-free optical method that tracks binding on a fibre tip over time.

Assay [2] has as its target T2, mouse VISTA expressed on Jurkat cells (mouse, UniProt Q9D659 33-308).
T2 construct: whole, on cells; also called Jurkat-mouse VISTA; mouse VISTA expressing cells
T2 sequence (looked up): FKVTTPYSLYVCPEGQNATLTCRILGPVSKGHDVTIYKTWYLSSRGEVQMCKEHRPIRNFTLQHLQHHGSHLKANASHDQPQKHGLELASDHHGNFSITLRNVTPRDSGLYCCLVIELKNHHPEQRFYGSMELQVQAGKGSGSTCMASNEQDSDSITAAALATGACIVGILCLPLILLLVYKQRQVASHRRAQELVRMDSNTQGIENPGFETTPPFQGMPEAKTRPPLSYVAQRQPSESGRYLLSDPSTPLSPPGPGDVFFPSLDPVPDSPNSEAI
Put plainly: flow cytometry on Jurkat cells expressing mouse VISTA (FIG. 3E).

Assay [3] deals with T3, Human VISTA recombinant protein (Sino Biological Inc., Cat. #13482-H08H), biotinylated (human, UniProt Q9H7M9 33-194, biotinylated using EZ-LINK NHS-PEG4 biotin).
T3 construct: Bought protein
T3 sequence: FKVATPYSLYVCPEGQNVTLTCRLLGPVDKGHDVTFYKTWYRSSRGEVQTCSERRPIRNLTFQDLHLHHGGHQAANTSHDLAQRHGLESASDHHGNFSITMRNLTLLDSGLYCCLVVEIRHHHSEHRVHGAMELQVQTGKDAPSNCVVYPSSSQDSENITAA
Put plainly: BLI (Octet QKe), biotinylated VISTA on streptavidin sensors, antibody at 5 µg/ml. The procedure:
as §1

Assay [4] addresses T2, mouse VISTA expressed on Jurkat cells. Put plainly: flow cytometry on Jurkat cells expressing mouse VISTA (FIG. 3A-D); the parental antibody is the binding comparator. Background: In flow cytometry, cells or beads pass a laser one at a time.
For assay [5], the target named is T1, mouse VISTA recombinant protein (Sino …). Briefly: BLI (Octet QKe), biotinylated VISTA on streptavidin sensors; the parental antibody is the affinity comparator. The procedure: as §1

B1: 9F9 humanized anti-VISTA antibody VH14/VL15 (antibody, V domains shown)
VH: QVQLVQSGAEVMKPGASVKISCKASGYTFTGYWMQWVRQRPGQGLEWIGAIYPGDGDTRYSQKFKGKATMTADTSISTAYMELSRLRSDDTAVYYCARRDYGAWFAYWGAGTTVTVSS
VL: DIVMTQSPSSLSASVGERVTITCKASQDINSYLSWFQQKPGKAPKTLIYRANRLVDGVPSRFSGSGSGTDFTFTISSVQPEDLAIYYCLQYDEFPYTFGGGTKLEIK
notes: also called 9E9 anti-VISTA VH14/VL15
As for B1, the binding result in assay [1] was “binds”.

B2: 9F9 VH15/VL15 hIgG2 (antibody, V domains shown)
VH: B1 VH with I20L, R38K, T91S
VL: B1 VL
notes: also called 9E9 VH15/VL15 using the IgG2 constant region
Turning to B2, in assay [2], the binding result is listed as “binds”.

B3: 9F9 VH15/VL15 hIgG1-LALA (antibody, V domains shown)
VH: B1 VH with I20L, R38K, T91S
VL: B1 VL
notes: also called 9E9 VH15/VL15 using the humanized hIgG1-LALA constant region
For B3, in assay [2], the binding result is recorded as “binds”.

B4: 9F9 humanized anti-VISTA antibody VH15/VL15 (antibody, V domains shown)
VH: B1 VH with I20L, R38K, T91S
VL: B1 VL
notes: also called 9E9 anti-VISTA VH15/VL15
As for B4, the binding result in assay [1] is given as “binds”.

B5: 9F9 parental anti-VISTA antibody (VH0/VL0) (antibody, V domains shown)
VH: QVQFQQSGAELARPGASVKLSCKASGYTFTGYWMQWVKQRPGQGLEWIGAIYPGDGDTRYSQKFKGKVTLTADKSSSTAYMQLSSLASEDSAVYYCARRDYGAWFAYWGQGTLVTVSA
VL: DIKVTQSPSSMYASLGERVTITCKASQDINSYLSWFQQKPGKSPKTLIYRANRLVDGVPSRFSGSGSGQDYSLTISSLDYEDMGIYYCLQYDEFPYTFGGGTKLEIK
notes: also called 9E9 parental antibody; parental 9F9 (VH0/VL0)
As for B5, the binding result in assay [3], in assay [4] and in assay [5] was “binds” in each case.

B6: 9F9 humanized anti-VISTA antibody VH7/VL7 (antibody, V domains shown)
VH: QVQFVQSGAEVKKPGASVKVSCKASGYTFTGYWMQWVKQAPGQRLEWIGAIYPGDGDTRYSQKFKGKVTLTADTSASTAYMELSSLRSEDTAVYYCARRDYGAWFAYWGQGTLVTVSS
VL: DIKVTQSPSSLSASVGDRVTITCKASQDINSYLSWYQQKPGKAPKTLIYRANRLVDGVPSRFSGSGSGQEYTLTISSLQPEDFATYYCLQYDEFPYTFGQGTKVEIK
notes: also called 9E9 anti-VISTA VH7/VL7
B6: the binding result in assay [1] is reported as “binds”.

B7: 9F9 humanized anti-VISTA antibody VH9/VL9 (antibody, V domains shown)
VH: B6 VH with A16S, T30S, R44G, T74E, A76T
VL: B6 VL with E70D, L73F, F83I
notes: also called 9E9 anti-VISTA VH9/VL9
As to B7, the binding result in assay [1] is given as “binds”.
